The source of these data is the nanobody polyreactivity screen of Harvey et al. (2022).

A short description of the data set: yeast display, Sf9 membrane polyspecificity reagent, FACS + sequencing; frameworks hold sequencing errors. In short, it runs like this:
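Galactose-induced (36–48 hours) yeast carrying a synthetic nanobody display library were exposed to 10% biotinylated, detergent-solubilized Sf9 membrane reagent at 4 °C for 1 hour. FACS followed streptavidin microbead enrichment, using low and high (top ~1%) gates for expression (anti-HA) and reagent binding (streptavidin). Colony PCR, MiSeq 2 × 250 sequencing and CDR-length filtering followed. Labels for polyreactivity reflect the gate of origin.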
Regarding “QVQLVESGGGLVQAGGSLRLSCAASGRTFGAYAMGLYRQEPGKETELVAAISKSGGRTYYADSVKGRFTISRDYAKNTVYLLMNSLKPEDTAVYYCNARGFRGEYDYWGEGTQVTVSS”, the “polyreactivity (PSR sort gate)” value is reported as “high polyreactivity”.

With “QVQLVQSGGGLVQAGGSLRLSCAASGLIFTTNPMGWYRQAPGKERQFVAAISPSGGSTYYADSVKGRFTISRDNAKNTVYLQMNCLKPEDTAVYSCGARYSPVWHKYYYWGQGTQVTVSS”, the “polyreactivity (PSR sort gate)” value is on record as “high polyreactivity”.

With “QVQLVESGGGLVQAGGSLRLSCAASGLNLKRYAMGCYTQAPGKERELVAAISKSGGSTYYADSVKGRFTISRDNAKNTVYLQMNSLKPEDTAVYYCAADSYNLWDDYWGQGTQVTVSS”, the “polyreactivity (PSR sort gate)” value was “low polyreactivity”.

Consider “QVQLVESGGGLVQAGGSLRLICAASGSTFQDNAMGWYRQAPGKERELVASISSVDSTNYADSVKGRFTISRDNAQNTVYLQMNSLKPEDTAVYYCNAAHPYRRVGSFTYKYDYWGQGTQVTVSS”, for which the “polyreactivity (PSR sort gate)” value is “low polyreactivity”.

For the sequence “QDQLVESGGGLVQAGGSLRLSCAASGSIFFINAMGWYRQAPGKERELVAAITYSGGSTYYADSVKGRFTISRDNAKYTVYLQMNSLKPEDTAVYYCAADQYSFLPWIAWLLDDYWGQGTQVTVSS”, the “polyreactivity (PSR sort gate)” value is listed as “low polyreactivity”.

Take “QVQLVESGGGLVQAGGSLRLSCAASGSSRYAMGWYTPAPGKERELVAVITLSGGITYADSVKGRFTISRDNAKNTVYLQMKSLKPEDTAVYYCNADYGDWPTGGDYWGQGTQVTVSS”: the “polyreactivity (PSR sort gate)” value is “low polyreactivity”.

“QVQLVESGGGLVQAGGSLRLSCPASGSIFYFYGMGWYRQAPGKEREFVAAISLYGGSTYYADSVKGRFTISRDNAKNTVYFQMNSLKPEDTAVYYCAARAWSYYHGKEDYWGQGTQVTVSS”: the “polyreactivity (PSR sort gate)” value was “high polyreactivity”.

As for “QVQLVESGGGLVQAGGSLRLSCAASGSTFSYYTMGWYRQAPGKERELVAGISYSGGRTYYADSVKGRFTSSRDKAKNTVYLQMNSLKPEDTAVYYCAKVSWRRGAFYYWGQGTQVTVSS”, the “polyreactivity (PSR sort gate)” value is listed as “high polyreactivity”.

For the sequence “QVQLVESGGGLVQAGGSLRLSCAASGSIITGYAMGWYRQAPGKERELVAAITGNAGSTYYADSVKGRFTISRDNAKNTVYLQMNSLKPEDTAVYYCNARSWYVRVDYWGQGTQVTVSS”, the “polyreactivity (PSR sort gate)” value is listed as “low polyreactivity”.

As to “QVQLVESGGGLVQAGGSLRLSCAASGFIFPYAMGWYRQAPGKEREMVAAISSTDGSTYYADSVKGRFTISRDNAKNTVYLQMNSLKPEDTAVYSCNAPFSFARYPSSWHYWDYYYWGQGTQVTVSS”, the “polyreactivity (PSR sort gate)” value was “low polyreactivity”.

As for “QVELVESGGALVQAGGSLSLSCAASGIIFSIYAMGWDRQAPGKERELVAAITYSGGRTYYADSVKGRFTISRDNAKNTVYLQMNSLKPEDTAVYYCAAVGYGEYYWGQGTQVTVSS”, the “polyreactivity (PSR sort gate)” value is “high polyreactivity”.

For “PVQLVESGGGLVQAGGSLRLSCAASGFIFRRNAMGWYRQAPGKERELVASIRSGGSTKYADSVKGRFTISRDNAKNTVYLQMTSLKPEDTAVYYCNAEDPGYAVRWYWFKYDYWGQGTQVSVSS”, the “polyreactivity (PSR sort gate)” value is “low polyreactivity”.

For the sequence “QVQHVESGGGLVQARGSLRLSCAASASIYPSYAMGWYRQAPGKERELVAVINSGGSTYYADSVKGRFTISRDNAKNTVYLQMNILNPEDTAGYYCAAYRRRYPRFDYWGPGTQVTVSS”, the “polyreactivity (PSR sort gate)” value is reported as “high polyreactivity”.

Take “QVQLVESGGGLVQAGGSIRLTCAASGLIFLVYPMGWYRPAPGKERELVASIRTGRSTSYADSVKGRFTISRDNAKYTVYLQMNSLKPEDTAVYYCAADRGRPNLPGDYWGQGTQVTVSS”: the “polyreactivity (PSR sort gate)” value is reported as “low polyreactivity”.

With “QVQLVESGGGLVQAGGSLRLSCAASGITFPDYAMGWYRQAPGKERELVAAISRGVNTYYADSVKGRFTISRDNAKNTVYLQMNSLKPEDTAVYYCNRRGSSGYDYWGQGSQVTVSS”, the “polyreactivity (PSR sort gate)” value is reported as “low polyreactivity”.

With “QVQLVESGGGLVQAGGSLRLSCADSGFTFTYYAMGWYRQAPGKERELVAGITRSGGSTYYADSVKGRFTISRDTAKNTVYLQMNSLKPEDTAVYYCAVKFVRYRQGIVLYDYWGQGTQVTVSS”, the “polyreactivity (PSR sort gate)” value is “high polyreactivity”.

As for “QVQLVESGGGLVQAGGSLRLSCAASGSTFQSYAMGWYRQAPGKERELVASITRTGGTTYYADSVKGRFTISRDNAKNTVYLQMNSLKPEDTAVYYCNADLGQPISLDDFDYWGQGTQVTVSS”, the “polyreactivity (PSR sort gate)” value is listed as “low polyreactivity”.

With “QVQLVESGGGLVQAGGSLRLSCAASGCIFRYYAKGWYRQPPGKERELVPVISSNGARTSYADSVKGRFTISRDNATYTVYLQMNSLKPEDTAVYYCNARAWSRFPPVGHDDWGQGTQVTVSS”, the “polyreactivity (PSR sort gate)” value is given as “high polyreactivity”.

“QVQLVESGGGLVQAGGSLRLSCAASGRTITRNAMGWYRQAPGKERELVASINRGGITYYADSVKGRFTISRDNAKNTVYLQMNSLKPEDTAVYYCATRPWRSPWGYYDYWGQGTQVTVSS”: the “polyreactivity (PSR sort gate)” value is “high polyreactivity”.

For “QVQLVESWGGLVQAGGSLRLSCAASGRIFGRYAMGWYRQAPGKERELVAAIRSTGSTNYADSVKGRFTISRDNAKNTVYLQMNSLKPEDTAVYYCAAYRRRTYAVNKEGGYWGQGTQVTVSS”, the “polyreactivity (PSR sort gate)” value is reported as “high polyreactivity”.

Take “QVQLVESGGRLVQAGGSLRLSCAASGRIIAYNAKGWYRQAPGKERELVDAISRSGGSTYYADSVKGRFTISRDNAKNTVYLQMNSLKPEDTAVYYCAASLKVPYATMNYWGQGTQVTVSS”: the “polyreactivity (PSR sort gate)” value was “high polyreactivity”.

Turning to “QVQLVESGGGLVQAGGSLRLSCAASGRTFSYYVMGWYRQAAGKERELVAAISRTTRTYYADSVKGRFSISRDNAKNTVYLHMNSLKPEDTAVYYCAADFPKGHYHYWGHGTQVTVSS”, the “polyreactivity (PSR sort gate)” value is reported as “high polyreactivity”.

On to “QVQLVESGGGLVQAGGSLRLSCAASGRIFPFNAMGWYRQAPGKERELVAVITWDGGSTYYADSVKGRFTISRDNAKNTVYLQMNSLKPEDTAVYYCAADIRRYYPGYEYWGQGTQVTVSS”, for which the “polyreactivity (PSR sort gate)” value was “low polyreactivity”.

Consider “QVQLVESGGGLVQAGGSLRLSCAASGSIFVYNDMGWYRQAPGKERELVAGIDWSGDRTYADSVKGRFTSSRDNAKNTVYLHMNSLKPEDTAVYYCNADEWRWDEIIPYAVDYWGQGTQVTVSS”, for which the “polyreactivity (PSR sort gate)” value was “low polyreactivity”.

For the sequence “QVQLPGSGGGLVQAGGSLRLSCAASGYIFQNVPMGWTRQAPGKERDLVAGIDNGTSTNYADSVNGRFTISRDNAKNTVYLQMNSLKPEDTAVYYCAAAGQADDTLGYWGQGTQVTVSS”, the “polyreactivity (PSR sort gate)” value is reported as “low polyreactivity”.

For “QVQLVESGGGLVQAGGSLRLSCAASGFIIYSYAMGWYRQAPGKERELVAGITSDGRTYYADSVKGRFTISRDNAKNTVYLQMNSLKPEDTAVYYCAARYYLFYRVSPYYYWGQGTQVTVSS”, the “polyreactivity (PSR sort gate)” value is given as “low polyreactivity”.

For the sequence “QVQLVESGGGLVQAGGSLRLSCAASGFTIAQNVMGWYRQAPGKERELVAAISVSGGSTYYADSVKGRFTISRDNAKNTVYLQMNSLKPEDTAVYYCNAVAGVTKRVDLSRSGYWGLGTQVTVSS”, the “polyreactivity (PSR sort gate)” value is “high polyreactivity”.

On to “QVQLVESGGGLVQAGGSLRLSCAASGFIFYPYAMAWYRQAPGKERELVAVITSGGRTYYADSVKGRFTISRDNAKNTVYLQMNSLKPEDTAVYYCAARYGRIHWKANWPEYGYWGQGTQVTVSS”, for which the “polyreactivity (PSR sort gate)” value is recorded as “low polyreactivity”.

Regarding “QVQLVESGGGLVQAGGSLRLSCAASGINFYYNAMGWYRQAPGKERELVATISWSDTSTYYADSVKGRFTISRDNAKNTVFLQMNSLKPEDTAGYYCATDGRETWLPEYYWGQGTQVTVSS”, the “polyreactivity (PSR sort gate)” value is on record as “low polyreactivity”.

Regarding “QVQLVQSGGGLVQAGGSLRLSCAASGRIFGLNTMGWYRQAPGKERELVAAITSSAGSTYYADSVKGRFPISRDNAKNTVSLQMNSLKPEDTAVYYCAARVSYLGSFTSQRYYYWGQGTQVTVSS”, the “polyreactivity (PSR sort gate)” value was “high polyreactivity”.

Turning to “QVQLVESGGGIVQSGGSLRLICAASGGIFKYNAMGWYRQAPGKERELVAAINYSGGRTYYADSVKGRFTISRDNAKNTVYLQMNSLKPEDTAVYYCNALTRGHTGQPYTYDYWGQGTQVTVSS”, the “polyreactivity (PSR sort gate)” value is “high polyreactivity”.

Regarding “QVQLVESGGGLVQAGGSLRLSCAASGSIFRVYTMGWYIQAPGKERELVAAISRSGGRTYYADSVKGRFTISRDNAKNTVYLQMNSLKPEDTAVYYCAARSSLYRAGYRYNSWGQGTQVTVSS”, the “polyreactivity (PSR sort gate)” value is listed as “high polyreactivity”.

Regarding “QVQLVESGGGLVQAGGSLRLSCAASGRIFDYYAMGWYRQAPGKERELVAVINRDGSTYYADSVKGRFTISRDNAKNTVYLQMNSLKPEDTAVYYCARDSAWAARGPFTDGAYDSWGQGTQVTVSS”, the “polyreactivity (PSR sort gate)” value is on record as “low polyreactivity”.

For the sequence “QVQLLESGGGLVQAGGSLRLSSAASGSILDHYAMGWYRQAPGNEREFVAAISIRGGSTYYADSVKGRFTISRDNAKNTVFLQMNSLKPEDNAVYYCAATAQYGRDSWSSYRMFPPYDYWGQGTEVTVSS”, the “polyreactivity (PSR sort gate)” value is listed as “low polyreactivity”.

With “QVPLVESGGGLLQAGGSLRISCAASGSIFTRNAMGWYRPAPGKERELVAAISRRGVSTYYADSVKGRFTISRDNAKNTVYLQMNSLKPEDTAVYYCTARSPMYRTTYDYWGQGTQVTVSS”, the “polyreactivity (PSR sort gate)” value was “high polyreactivity”.

Regarding “QVQLVESGGGLVQAGGSLRLSCAASGFIFSAYAMGWYRQAPGKERELVAAISYSGGTTYYADSVKGRFTISRDNAKNTVYLQMNSLKPEDTAVYYCAAGVGYWGQGTQVTVSS”, the “polyreactivity (PSR sort gate)” value is reported as “high polyreactivity”.

Take “QVQLVESGGGLVQAGGRLRLSCAASGRTCGYYTMGWYRQAPGKERELVATIRWSGGSTYADSVKGRFTISRDNAKNTVYLQMNSLKPEDTAVYYCAARNRIKWGQGTQVTVSS”: the “polyreactivity (PSR sort gate)” value is “high polyreactivity”.

For the sequence “QVQHVESGGGLVQAGGSQRLSCAASGSTLYYNAMGWYRQAPGKEREFVAGISSSGGRTYYADSVKGRFTISRDNAKNTVYLQMNSLKPEDTAVYYCARVGAIPSRYGYWGQGTQVTVSS”, the “polyreactivity (PSR sort gate)” value was “high polyreactivity”.

As for “QVQLVESGGGLVQAGGSLRLSCAASGINFVGYAMGWYRQAPGKERELVAAISTSSRTYYADSVKGRFTISRDNAKITVYLHMNSLKPDDTAVYYCNARGTRWYYRHDYWGQGTQVTVSS”, the “polyreactivity (PSR sort gate)” value was “high polyreactivity”.

For “QVQLVESGGGLVQAGGSLRLSCAASGIIFYRNAMGWYRQAPGNERELVAAITSSGGRTYYADSVKGRFTISRDNAKNTVYLQMNSLKPEDTPVYYCAATRLYWKIFYGDGDYWGQGTQVTVSS”, the “polyreactivity (PSR sort gate)” value is “high polyreactivity”.

In the case of “QVQLVESGGGLVQAGGSLRLSCAASGFIFKHYAMGWYRQAPGKERELVAAISRSTGRTNYADSVKGRFTISRDNAKNTDYLQMNSLKPEDTAVYYCAAYRYLRYDYWGQGTQVTVSS”, the “polyreactivity (PSR sort gate)” value is “high polyreactivity”.
